Sequences and labels used below:
B1: nanobody H5 (VHH)
VHH: QVQLVESGGGSVQAGGSLRLSCAASGSISSITYLGWFRQAPGKEREGVAALSTSSGTTYYADSVKGRFTVSLDNAKNTVYLQMNSLKPEDTALYYCAAADKGREYTLARAKYWYWGQGTQVTVSA
notes: synthetic nanobody selected from a library on the convex scaffold (pRDV containing Sb-convex, Addgene 132696) with randomised CDR3; also called H5^WT; H5 monomer; source: E. coli BL21 (pSBinit), periplasmic extract, purified (TALON Superflow)
B2: H5^A110Y (VHH)
VHH: QVQLVESGGGSVQAGGSLRLSCAASGSISSITYLGWFRQAPGKEREGVAALSTSSGTTYYADSVKGRFTVSLDNAKNTVYLQMNSLKPEDTALYYCAAADKGREYTLARYKYWYWGQGTQVTVSA
notes: also called H5 mutant A110Y; source: E. coli BL21 (pSBinit), periplasmic extract, purified (TALON Superflow)
B3: H5^E104R (VHH)
VHH: QVQLVESGGGSVQAGGSLRLSCAASGSISSITYLGWFRQAPGKEREGVAALSTSSGTTYYADSVKGRFTVSLDNAKNTVYLQMNSLKPEDTALYYCAAADKGRRYTLARAKYWYWGQGTQVTVSA
notes: also called H5 mutant E104R; source: E. coli BL21 (pSBinit), periplasmic extract, purified (TALON Superflow)

For orientation: Kd means the constant that tells how readily two partners part at equilibrium.

T1 sequence (P24394 26-232): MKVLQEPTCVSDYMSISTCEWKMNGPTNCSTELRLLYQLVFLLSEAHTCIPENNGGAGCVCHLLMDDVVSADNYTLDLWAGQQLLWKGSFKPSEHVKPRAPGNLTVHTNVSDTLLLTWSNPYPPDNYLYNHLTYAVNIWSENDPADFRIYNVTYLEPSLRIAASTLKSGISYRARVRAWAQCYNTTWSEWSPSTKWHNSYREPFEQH

This assay concerns the target T1, extracellular domain of human IL-4Rα (human, UniProt P24394, biotin (Biotin-labeled IL-4Rα on the Biacore sensor chip)).
T1 construct: interleukin-4 receptor alpha, human, extracellular domain; Source and limits of the recombinant protein may stand in the materials list of the supplement; Biotin labelling is told only for the Biacore T200 experiment; also called IL-4 Receptor alpha
As to the kind of experiment: SPR; Biacore T200; biotin-labeled IL-4Rα immobilised on the sensor chip (BR100531); nanobody 15.625-2000 nM; running buffer PBS pH 7.4; 1:1 kinetic binding model. The note with it: both partners purified. For orientation: In SPR one partner is held on a chip, and binding of the other changes the refractive index at the surface.
Molecule B1 registered a Kd of 1.42 µM.
For B2 the value was 0.708 µM.
For B3 the value was 1.03 µM.
